Test results taken from US20230048200.

Biological target: Human type 1 atelo-collagen (UniProt P02452)
Sequence (P02452 179-1192, chain 1 of 2): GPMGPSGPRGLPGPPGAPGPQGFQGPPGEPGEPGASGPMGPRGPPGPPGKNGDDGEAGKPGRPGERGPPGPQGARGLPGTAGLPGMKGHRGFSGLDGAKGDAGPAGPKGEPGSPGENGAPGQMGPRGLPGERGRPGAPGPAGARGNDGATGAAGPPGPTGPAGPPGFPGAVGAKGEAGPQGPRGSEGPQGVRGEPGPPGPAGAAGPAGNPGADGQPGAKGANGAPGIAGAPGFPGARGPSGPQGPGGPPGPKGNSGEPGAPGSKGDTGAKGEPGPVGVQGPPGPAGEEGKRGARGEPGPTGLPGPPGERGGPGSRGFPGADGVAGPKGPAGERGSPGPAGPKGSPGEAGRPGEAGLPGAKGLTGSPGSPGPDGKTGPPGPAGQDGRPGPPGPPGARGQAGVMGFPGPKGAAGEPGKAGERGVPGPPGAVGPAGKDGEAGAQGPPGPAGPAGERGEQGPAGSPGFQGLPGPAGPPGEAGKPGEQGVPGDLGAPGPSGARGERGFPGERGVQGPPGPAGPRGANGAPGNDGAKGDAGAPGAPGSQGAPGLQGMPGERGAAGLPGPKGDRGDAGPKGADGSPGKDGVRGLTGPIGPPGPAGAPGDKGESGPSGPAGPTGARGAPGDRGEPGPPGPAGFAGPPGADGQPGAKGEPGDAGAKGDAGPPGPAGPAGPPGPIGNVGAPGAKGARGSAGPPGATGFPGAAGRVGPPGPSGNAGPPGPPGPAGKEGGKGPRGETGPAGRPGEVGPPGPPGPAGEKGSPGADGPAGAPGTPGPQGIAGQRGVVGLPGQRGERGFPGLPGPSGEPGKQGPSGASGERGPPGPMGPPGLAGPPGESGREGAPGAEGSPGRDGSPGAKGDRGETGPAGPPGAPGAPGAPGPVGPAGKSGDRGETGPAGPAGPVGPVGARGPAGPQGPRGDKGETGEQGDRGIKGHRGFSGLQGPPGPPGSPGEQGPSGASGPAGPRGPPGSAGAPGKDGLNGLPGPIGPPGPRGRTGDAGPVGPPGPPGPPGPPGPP
Sequence (chain, as listed by the source, chain 2 of 2): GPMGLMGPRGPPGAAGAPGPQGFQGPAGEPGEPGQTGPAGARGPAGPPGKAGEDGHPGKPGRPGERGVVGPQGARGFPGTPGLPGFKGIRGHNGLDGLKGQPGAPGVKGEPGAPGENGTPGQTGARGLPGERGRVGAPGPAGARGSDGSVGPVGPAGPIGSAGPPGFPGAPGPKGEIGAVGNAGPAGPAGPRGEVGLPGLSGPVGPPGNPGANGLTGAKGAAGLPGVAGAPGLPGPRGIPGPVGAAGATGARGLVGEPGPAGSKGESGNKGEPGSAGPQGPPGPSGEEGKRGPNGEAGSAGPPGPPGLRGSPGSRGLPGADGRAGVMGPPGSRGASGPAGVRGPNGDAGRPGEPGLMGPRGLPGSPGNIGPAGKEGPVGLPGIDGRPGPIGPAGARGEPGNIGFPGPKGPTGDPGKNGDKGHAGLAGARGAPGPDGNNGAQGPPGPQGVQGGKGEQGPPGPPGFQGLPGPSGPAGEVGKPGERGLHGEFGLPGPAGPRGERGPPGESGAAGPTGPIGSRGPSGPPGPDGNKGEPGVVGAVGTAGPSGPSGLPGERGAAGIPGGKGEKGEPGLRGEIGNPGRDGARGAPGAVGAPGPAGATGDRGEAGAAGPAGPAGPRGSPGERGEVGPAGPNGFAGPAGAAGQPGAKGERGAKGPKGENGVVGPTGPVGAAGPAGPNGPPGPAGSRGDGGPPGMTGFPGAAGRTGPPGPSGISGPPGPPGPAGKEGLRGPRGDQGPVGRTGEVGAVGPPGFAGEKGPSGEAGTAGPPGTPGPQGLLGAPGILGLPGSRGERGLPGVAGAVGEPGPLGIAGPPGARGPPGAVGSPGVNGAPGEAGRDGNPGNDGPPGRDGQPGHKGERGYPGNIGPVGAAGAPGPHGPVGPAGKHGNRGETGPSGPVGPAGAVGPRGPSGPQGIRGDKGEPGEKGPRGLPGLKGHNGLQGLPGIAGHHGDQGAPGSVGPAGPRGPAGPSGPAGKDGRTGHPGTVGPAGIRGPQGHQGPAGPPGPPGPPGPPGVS

Q: Which “reduction in the full length alpha1(I) and alpha2(I) chains (SDS-PAGE, band quantitation)” value does the source give for “matrix metalloproteinase-1 (MMP-1), activated with 2 mM APMA” here?
A: Its value is “an approximately 7.4-fold (over 80%) reduction in the full length of these chains when collagen was treated with MMP-1”.
